Assay results reported in US20200377590A1 (Hoffmann-La Roche, published 2020).
Where a chain is given by its changes, count along the chain named.

T1: CD81 (UniProt P60033 1-236, limits assumed)
T1 construct: whole, on cells; also called CD81 receptor
T1 sequence (looked up): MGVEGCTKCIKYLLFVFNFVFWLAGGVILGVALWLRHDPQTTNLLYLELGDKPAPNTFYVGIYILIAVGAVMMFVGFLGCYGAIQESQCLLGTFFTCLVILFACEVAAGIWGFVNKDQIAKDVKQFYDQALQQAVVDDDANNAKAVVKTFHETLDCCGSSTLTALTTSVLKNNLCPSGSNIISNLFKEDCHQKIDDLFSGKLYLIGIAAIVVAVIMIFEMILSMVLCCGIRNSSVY

B1: CD81K13 HC 02-hVH_1_3 / LC CD81K13 (antibody, V domains shown)
VH: QVQLVQSGAEVKKPGASVKVSCKASGYTFTDSYMHWVRQAPGQRLEWMGRIDTGNGNTKYSQKFQGRVTITTDTSASTAYMELSSLRSEDTAVYYCAPYGYGFHSWGQGTLVTVSS
VL: DIQMTQSPASLSVSVGETVTITCRASENIYRTLAWYLQKQGKSPQLLVYGATTLADGVPSRFSGSGSGTQYYLKINSLQSEDFGTYHCQHFWGTPWTFGGGTKVEIK
notes: human constant region
B2: CD81K13 HC 02-hVH_1_3 / LC 1c-hVK_3_15 (antibody, V domains shown)
VH: B1 VH
VL: EIVMTQSPATLSVSPGERATLSCRASENIYRTLAWYQQKPGQAPRLLIYGATTLADGIPARFSGSGSGTEFTLTISSLQSEDFGVYYCQHFWGTPWTFGQGTKVEIK
notes: human constant region
B3: CD81K13 HC 02-hVH_1_3 / LC 03-hVK_1_9 (antibody, V domains shown)
VH: B1 VH
VL: DIQLTQSPSFLSASVGDRVTITCRASENIYRTLAWYQQKPGKAPKLLIYAATTLASGVPSRFSGSGSGTEFTLTISSLQPEDFATYYCQHFWGTPWTFGQGTKVEIK
notes: human constant region
B4: CD81K13 HC 02-hVH_1_3 / LC 06-hVK_1_39 (antibody, V domains shown)
VH: B1 VH
VL: B3 VL with L4M, F10S, E70D, A84G
notes: human constant region
B5: CD81K13 HC 02-hVH_1_3 / LC 5b-hVK_1_39-GA (antibody, V domains shown)
VH: B1 VH
VL: B3 VL with L4M, F10S, A50G, S56D, E70D
notes: human constant region
B6: CD81K13 HC 05-hVH_1_69 / LC CD81K13 (antibody, V domains shown)
VH: QVQLVQSGAEVKKPGSSVKVSCKASGFNFKDSYLHWVRQAPGQGLEWMGRIDTGNGNVKFDPKFQGRVTITTDESTSTAYMELSSLRSEDTAVYYCVPYGYGFHSWGQGTLVTVSS
VL: B1 VL
notes: human constant region
B7: CD81K13 HC 02-hVH_1_3 / LC 01-hVK_3_15 (antibody, V domains shown)
VH: B1 VH
VL: B2 VL with L54R, D56T
notes: human constant region
B8: CD81K13 HC 02-hVH_1_3 / LC 04-hVK_1_9 (antibody, V domains shown)
VH: B1 VH
VL: B3 VL with A84G
notes: human constant region
B9: CD81K13 HC 02-hVH_1_3 / LC 05-hVK_1_39 (antibody, V domains shown)
VH: B1 VH
VL: B3 VL with L4M, F10S, E70D
notes: human constant region
B10: CD81K13 HC 02-hVH_1_3 / LC 1b-hVK_3_15 (antibody, V domains shown)
VH: B1 VH
VL: B2 VL with G84A
notes: human constant region
B11: CD81K13 HC 02-hVH_1_3 / LC 5b-hVK_1_39 (antibody, V domains shown)
VH: B1 VH
VL: B3 VL with L4M, F10S, A50G, S56D, E70D
notes: human constant region
B12: CD81K13 HC 03-hVH_1_69 / LC CD81K13 (antibody, V domains shown)
VH: B6 VH with F60Y, D61A, P62Q, T72A, V97A
VL: B1 VL
notes: human constant region
B13: CD81K13 HC 07-hVH_1_3 / LC CD81K13 (antibody, V domains shown)
VH: B6 VH with S16A, F27Y, N28T, E74T, T76A, V97A
VL: B1 VL
notes: human constant region
B14: CD81K13 HC 5b-hVH_1_69-GA / LC CD81K13 (antibody, V domains shown)
VH: B6 VH with V11L, K12V
VL: B1 VL
notes: human constant region
B15: CD81K13 HC 06-hVH_1_3 / LC CD81K13 (antibody, V domains shown)
VH: B1 VH with T30K, M34L, T58V, Y60F, S61D, Q62P
VL: B1 VL
notes: human constant region
B16: CD81K13 HC 5b-hVH_1_69 / LC CD81K13 (antibody, V domains shown)
VH: B6 VH with V11L, K12V
VL: B1 VL
notes: human constant region
B17: CD81K13 HC 05-hVH_1_69 / LC 1c-hVK_3_15 (antibody, V domains shown)
VH: B6 VH
VL: B2 VL
notes: human constant region
B18: CD81K13 HC 05-hVH_1_69 / LC 05-hVK_1_39 (antibody, V domains shown)
VH: B6 VH
VL: B3 VL with L4M, F10S, E70D
notes: human constant region
B19: CD81K13 HC 06-hVH_1_3 / LC 1c-hVK_3_15 (antibody, V domains shown)
VH: B1 VH with T30K, M34L, T58V, Y60F, S61D, Q62P
VL: B2 VL
notes: human constant region
B20: CD81K13 HC 03-hVH_1_69 / LC 1b-hVK_3_15 (antibody, V domains shown)
VH: B6 VH with F60Y, D61A, P62Q, T72A, V97A
VL: B2 VL with G84A
notes: human constant region
B21: CD81K13 HC 06-hVH_1_3 / LC 01-hVK_3_15 (antibody, V domains shown)
VH: B1 VH with T30K, M34L, T58V, Y60F, S61D, Q62P
VL: B2 VL with L54R, D56T
notes: human constant region
B22: CD81K13 HC 03-hVH_1_69 / LC 05-hVK_1_39 (antibody, V domains shown)
VH: B6 VH with F60Y, D61A, P62Q, T72A, V97A
VL: B3 VL with L4M, F10S, E70D
notes: human constant region
B23: CD81K13 HC 07-hVH_1_3 / LC 1c-hVK_3_15 (antibody, V domains shown)
VH: B6 VH with S16A, F27Y, N28T, E74T, T76A, V97A
VL: B2 VL
notes: human constant region
B24: CD81K13 HC 5b-hVH_1_69-GA / LC 01-hVK_3_15 (antibody, V domains shown)
VH: B6 VH with V11L, K12V
VL: B2 VL with L54R, D56T
notes: human constant region
B25: CD81K13 HC 03-hVH_1_69 / LC 04-hVK_1_9 (antibody, V domains shown)
VH: B6 VH with F60Y, D61A, P62Q, T72A, V97A
VL: B3 VL with A84G
notes: human constant region
B26: CD81K13 HC 5b-hVH_1_69 / LC 1c-hVK_3_15 (antibody, V domains shown)
VH: B6 VH with V11L, K12V
VL: B2 VL
notes: human constant region
B27: CD81K13 HC 03-hVH_1_69 / LC 01-hVK_3_15 (antibody, V domains shown)
VH: B6 VH with F60Y, D61A, P62Q, T72A, V97A
VL: B2 VL with L54R, D56T
notes: human constant region
B28: CD81K13 HC 03-hVH_1_69 / LC 06-hVK_1_39 (antibody, V domains shown)
VH: B6 VH with F60Y, D61A, P62Q, T72A, V97A
VL: B3 VL with L4M, F10S, E70D, A84G
notes: human constant region
B29: CD81K13 HC 07-hVH_1_3 / LC 01-hVK_3_15 (antibody, V domains shown)
VH: B6 VH with S16A, F27Y, N28T, E74T, T76A, V97A
VL: B2 VL with L54R, D56T
notes: human constant region
B30: CD81K13 HC 05-hVH_1_69 / LC 04-hVK_1_9 (antibody, V domains shown)
VH: B6 VH
VL: B3 VL with A84G
notes: human constant region
B31: CD81K13 HC 06-hVH_1_3 / LC 1b-hVK_3_15 (antibody, V domains shown)
VH: B1 VH with T30K, M34L, T58V, Y60F, S61D, Q62P
VL: B2 VL with G84A
notes: human constant region
B32: CD81K13 HC 5b-hVH_1_69-GA / LC 1c-hVK_3_15 (antibody, V domains shown)
VH: B6 VH with V11L, K12V
VL: B2 VL
notes: human constant region
B33: CD81K13 HC 5b-hVH_1_69 / LC 1b-hVK_3_15 (antibody, V domains shown)
VH: B6 VH with V11L, K12V
VL: B2 VL with G84A
notes: human constant region
B34: CD81K13 HC 07-hVH_1_3 / LC 1b-hVK_3_15 (antibody, V domains shown)
VH: B6 VH with S16A, F27Y, N28T, E74T, T76A, V97A
VL: B2 VL with G84A
notes: human constant region
B35: CD81K13 HC 03-hVH_1_69 / LC 5b-hVK_1_39 (antibody, V domains shown)
VH: B6 VH with F60Y, D61A, P62Q, T72A, V97A
VL: B3 VL with L4M, F10S, A50G, S56D, E70D
notes: human constant region
B36: CD81K13 HC 05-hVH_1_69 / LC 03-hVK_1_9 (antibody, V domains shown)
VH: B6 VH
VL: B3 VL
notes: human constant region
B37: CD81K13 HC 03-hVH_1_69 / LC 03-hVK_1_9 (antibody, V domains shown)
VH: B6 VH with F60Y, D61A, P62Q, T72A, V97A
VL: B3 VL
notes: human constant region
B38: CD81K13 HC 5b-hVH_1_69-GA / LC 1b-hVK_3_15 (antibody, V domains shown)
VH: B6 VH with V11L, K12V
VL: B2 VL with G84A
notes: human constant region
B39: CD81K13 HC 5b-hVH_1_69 / LC 01-hVK_3_15 (antibody, V domains shown)
VH: B6 VH with V11L, K12V
VL: B2 VL with L54R, D56T
notes: human constant region
B40: CD81K13 HC 05-hVH_1_69 / LC 01-hVK_3_15 (antibody, V domains shown)
VH: B6 VH
VL: B2 VL with L54R, D56T
notes: human constant region
B41: CD81K13 HC 05-hVH_1_69 / LC 1b-hVK_3_15 (antibody, V domains shown)
VH: B6 VH
VL: B2 VL with G84A
notes: human constant region
B42: CD81K13 HC 03-hVH_1_69 / LC 1c-hVK_3_15 (antibody, V domains shown)
VH: B6 VH with F60Y, D61A, P62Q, T72A, V97A
VL: B2 VL
notes: human constant region
B43: CD81K13 HC 03-hVH_1_69 / LC 5b-hVK_1_39-GA (antibody, V domains shown)
VH: B6 VH with F60Y, D61A, P62Q, T72A, V97A
VL: B3 VL with L4M, F10S, A50G, S56D, E70D
notes: human constant region

Molecular target: T1, CD81
Assay: cell ELISA;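 further: antibody binding to HuH7 cells expressing CD81 versus a CD81-negative HuH7 control line, bound antibody detected by secondary reagent, absorbance at 450 nm with 620 nm reference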
Method: For the binding cell ELISA assay, HuH7-Rluc-H3 (positive cell line expressing CD81) and HuH7-Rluc-L1 (negative control cell line) were propagated in F-12 DMEM medium with 10% FCS at 37° C. and 5% CO₂. On day 1, the cells were trypsinized at approximately 90% confluence and resuspended at 4×10⁵ cells/mL. […] On day 2, the antibody samples to be tested were prepared in a separate polypropylene round bottom plate with a twofold desired concentration with a final volume of 120 μl. All of the assay samples were diluted in cell culture medium. […] After fixation, each well was washed 3 times with 200 μL PBS/0.05% Tween. The secondary incubation step for detection of bound anti-CD81 antibodies was performed for 2 h at room temperature on a reciprocal shaker. […] Each well was washed three times with 200 μL PBS/0.05% Tween to remove unbound antibodies. […] The absorbance was read using the ELISA Tecan reader at 450 nm with 620 nm reference wavelength.

Row | Binder | ELISA data
1 | B1 | 0.585
2 | B2 | 0.283
3 | B3 | 0.13
4 | B4 | 0.251
5 | B5 | 0.247
6 | B6 | 0.94
7 | B7 | 0.314
8 | B8 | 0.163
9 | B9 | 0.161
10 | B10 | 0.347
11 | B11 | 0.29
12 | B12 | 0.787
13 | B13 | 0.572
14 | B14 | 0.935
15 | B15 | 0.447
16 | B16 | 0.813
17 | B17 | 0.767
18 | B18 | 0.91
19 | B19 | 0.34
20 | B20 | 0.403
21 | B21 | 0.547
22 | B22 | 0.525

Row | Binder | ELISA data
23 | B23 | 0.337
24 | B24 | 0.739
25 | B25 | 0.188
26 | B26 | 0.701
27 | B27 | 0.649
28 | B28 | 0.484
29 | B29 | 0.459
30 | B30 | 0.685
31 | B31 | 0.394
32 | B32 | 0.794
33 | B33 | 0.646
34 | B34 | 0.367
35 | B35 | 0.546
36 | B36 | 0.787
37 | B37 | 0.208
38 | B38 | 0.648
39 | B39 | 0.749
40 | B40 | 0.684
41 | B41 | 0.624
42 | B42 | 0.252
43 | B43 | 0.552
